Data published in patent publication US20140127127.

System: L-pyroglutamyl-L-prolyl-L-arginine-p-nitroaniline hydrochloride

recombinant human hepsin extracellular region (Ser46 to Leu417), produced in P. pastoris, sequence (chain, as listed by the source): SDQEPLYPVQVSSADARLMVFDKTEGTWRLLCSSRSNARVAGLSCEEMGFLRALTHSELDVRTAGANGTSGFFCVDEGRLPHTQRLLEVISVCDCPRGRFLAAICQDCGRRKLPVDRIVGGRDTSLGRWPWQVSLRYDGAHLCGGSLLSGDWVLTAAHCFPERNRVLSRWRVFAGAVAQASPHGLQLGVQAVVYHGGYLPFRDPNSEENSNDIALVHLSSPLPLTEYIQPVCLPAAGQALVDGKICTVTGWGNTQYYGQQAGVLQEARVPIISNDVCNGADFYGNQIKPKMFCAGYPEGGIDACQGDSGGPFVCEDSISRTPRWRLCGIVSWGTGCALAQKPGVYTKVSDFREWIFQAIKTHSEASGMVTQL

For “recombinant human hepsin extracellular region (Ser46 to Leu417), produced in P. pastoris”, the Km was 0.4 nM hepsin, Km=170 µM and the “enzymatic cleavage of chromogenic substrate” value was “The purified hepsin was enzymatically active (FIG. 1B), cleaving the chromogenic serine protease substrate pyroGlu-Pro-Arg-pNA”.
